Reference: patent US20220204567A1 (published 2022)

B1: CR9114 (antibody, V domains shown)
VH: QVQLVQSGAEVKKPGSSVKVSCKSSGGTSNNYAISWVRQAPGQGLDWMGGISPIFGSTAYAQKFQGRVTISADIFSNTAYMELNSLTSEDTAVYFCARHGNYYYYSGMDVWGQGTTVTVSS
VL: SYVLTQPPAVSGTPGQRVTISCSGSDSNIGRRSVNWYQQFPGTAPKLLIYSNDQRPSVVPDRFSGSKSGTSASLAISGLQSEDEAEYYCAAWDDSLKGAVFGGGTQLTVL
B2: CR8020 (antibody, V domains shown)
VH: QVQLQQSGAEVKTPGASVKVSCKASGYTFTSFGVSWIRQAPGQGLEWIGWISAYNGDTYYAQKFQARVTMTTDTSTTTAYMEMRSLRSDDTAVYYCAREPPLFYSSWSLDNWGQGTLVTVSS
VL: EIVLTQSPGTLSLSPGERATLSCRASQSVSMNYLAWFQQKPGQAPRLLIYGASRRATGIPDRISGSGSGTDFTLTISRLEPADFAVYYCQQYGTSPRTFGQGAKVEIK
B3: CR6261 (antibody, V domains shown)
VH: EVQLVESGAEVKKPGSSVKVSCKASGGPFRSYAISWVRQAPGQGPEWMGGIIPIFGTTKYAPKFQGRVTITADDFAGTVYMELSSLRSEDTAMYYCAKHMGYQVRETMDVWGKGTTVTVSS
VL: QSVLTQPPSVSAAPGQKVTISCSGSSSNIGNDYVSWYQQLPGTAPKLLIYDNNKRPSGIPDRFSGSKSGTSATLGITGLQTGDEANYYCATWDRRPTAYVVFGGGTKLTVL

What was measured:
Experiment in all cases: ELISA
[1] = molecular target: wild type HA ectodomain of H3 A/Indiana/11/2011 with C-terminal Foldon trimerization domain
[2] = molecular target: wild type HA ectodomain of H3 A/Hong Kong/1/1968 with C-terminal Foldon trimerization domain
[3] = molecular target: UFV4239, wild type HA ectodomain of H1 A/California/07/2009 without Foldon trimerization domain
[4] = molecular target: wild type HA ectodomain of H1 A/Michigan/45/2015 with C-terminal Foldon trimerization domain

Binder	EC50 [1]	EC50 [2]	EC50 [3]	EC50 [4]
B1	25 nM	12.7 nM	–	–
B2	1.9 nM	1.6 nM	> 70 nM	> 70 nM
B3	> 70 nM	> 70 nM	1 nM	0.6 nM
